Test results published in patent US20180043012A1 (CSL BEHRING RECOMBINANT FACILITY, published 2018).

What was measured:
[1] = molecular target: T1, purified monomeric human VWF (von Willebrand factor) (human, UniProt P04275 764-2813, limits assumed); assay: SPR, MGL1 immobilized on CM3 chip, fit of the dissociation phase alone
T1 construct: Analyte in the mobile phase in all SPR experiments; Background text says mature plasma VWF is the 2050-residue polypeptide; also called VWF monomers; monomeric VWF

[2] = molecular target: T1, purified monomeric human VWF (von …); assay: SPR, CLEC10A immobilized on CM3 chip, fit of the dissociation phase alone
Experimental: Interaction analysis cycles consisted of a 5 min sample injection phase. In this association phase, VWF bound to CLEC10A immobilized on the surface, and increased the surface mass. This phase was followed by a dissociation phase of 17 min in running buffer. In the dissociation phase, the sample was replaced by running buffer and the dissociated VWF was removed from the surface, resulting in a decreased surface mass. All samples were tested as repeat determination. […] Although kinetic data were analyzed using Biacore T200 Evaluation Software Version 1.0 (GE Healthcare Biosciences, Uppsala, Sweden), the data set was only used for information purpose.
SPR was predominantly used as mass detector. An interaction of VWF with CLEC10A was detected by an increase in accumulating mass and specific binding was identified by subtracting the binding response recorded from the control surface, followed by subtracting an average of the buffer blank injections. A time point was positioned 20 seconds after the end of sample injection and was evaluated as representative for a stable protein-ligand interaction, which was of interest. […] Furthermore, testing was performed at least in duplicate and the response was calculated relative to the baseline in each case. […] Moreover, dissociation rate constants (off-rate) were calculated by fitting the dissociation phase alone. […]

B1: mouse MGL1 (CLEC10A orthologous mouse receptor protein) (receptor, UniProt P49300 57-304, looked up)
chain: QNSQLRRDLGTLRATLDNTTSKIKAEFQSLDSRADSFEKGISSLKVDVEDHRQELQAGRDLSQKVTSLESTVEKREQALKTDLSDLTDHVQQLRKDLKALTCQLANLKNNGSEVACCPLHWTEHEGSCYWFSESEKSWPEADKYCRLENSHLVVVNSLEEQNFLQNRLANVVSWIGLTDQNGPWRWVDGTDFEKGFKNWAPLQPDNWFGHGLGGGEDCAHITTGGPWNDDVCQRTFRWICEMKLAKES
koff [1]: 0.000406 s⁻¹

B2: recombinant human CLEC10A, extracellular domain (R&D Systems) (receptor, UniProt Q8IUN9 61-316, looked up)
chain: QNSKFQRDLVTLRTDFSNFTSNTVAEIQALTSQGSSLEETIASLKAEVEGFKQERQAGVSELQEHTTQKAHLGHCPHCPSVCVPVHSEMLLRVQQLVQDLKKLTCQVATLNNNASTEGTCCPVNWVEHQDSCYWFSHSGMSWAEAEKYCQLKNAHLVVINSREEQNFVQKYLGSAYTWMGLSDPEGAWKWVDGTDYATGFQNWKPGQPDDWQGHGLGGGEDCAHFHPDGRWNDDVCQRPYHWVCEAGLGQTSQESH
notes: extracellular domain; also called macrophage Gal-type lectin; CD301
koff [2]: 0.00051 s⁻¹
